Data on 29 molecules can be found in patent US20260209362A1 (VIB VZW, published 2026).

For the assay, the target named is T1, human IL-12Rβ2 (human, UniProt Q99665 24-862).
T1 construct: Expressed on HEK293T cells transiently transfected with a pcDNA3 plasmid (Genscript clone OHu21785); also called hIL-12RB2; IL-12 receptor β2 subunit
T1 sequence: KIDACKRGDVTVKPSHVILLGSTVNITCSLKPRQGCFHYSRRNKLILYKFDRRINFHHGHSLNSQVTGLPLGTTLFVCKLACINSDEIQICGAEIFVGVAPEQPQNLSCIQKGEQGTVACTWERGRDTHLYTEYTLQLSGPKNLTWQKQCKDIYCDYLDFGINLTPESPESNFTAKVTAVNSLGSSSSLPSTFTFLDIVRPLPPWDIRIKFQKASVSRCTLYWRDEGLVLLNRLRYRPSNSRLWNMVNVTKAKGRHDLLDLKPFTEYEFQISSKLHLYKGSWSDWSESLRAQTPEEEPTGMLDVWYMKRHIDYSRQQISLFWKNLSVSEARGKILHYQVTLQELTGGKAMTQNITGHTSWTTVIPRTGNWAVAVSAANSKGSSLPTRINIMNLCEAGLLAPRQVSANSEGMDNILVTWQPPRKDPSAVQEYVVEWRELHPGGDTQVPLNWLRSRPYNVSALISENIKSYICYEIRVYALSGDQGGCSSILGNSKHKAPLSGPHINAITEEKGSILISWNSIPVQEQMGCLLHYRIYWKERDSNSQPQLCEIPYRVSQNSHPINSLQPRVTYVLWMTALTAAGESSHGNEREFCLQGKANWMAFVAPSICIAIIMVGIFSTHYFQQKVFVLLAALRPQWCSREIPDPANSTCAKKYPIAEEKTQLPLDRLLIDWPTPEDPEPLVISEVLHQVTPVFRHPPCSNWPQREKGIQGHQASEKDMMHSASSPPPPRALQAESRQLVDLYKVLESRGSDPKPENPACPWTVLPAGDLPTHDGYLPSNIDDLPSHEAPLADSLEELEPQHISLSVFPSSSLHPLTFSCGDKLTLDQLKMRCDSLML
As to the kind of experiment: flow cytometry, P.E. on transfected HEK293T cells.

Residue numbers refer to the chain shown, from its start.

B1: anti-IL-12Rβ2 VHH clone 3CRHS31 (VHH, not shown: small tags and cut ends)
VHH: QVQLQESGGGLVQAGGSLRLSCAASGFTFSTYAMSWVRQAPGKGLEWVSSVNSGGLSTDYADSVEGRFTISRDDAKNMLFLQMNSLKPEDTARYYCAKYEDCSDYVCDRAGYWGQGTQVTVSS
notes: periplasmic extract
On to B1, for which the “% cells bound” value stood at 42.8% and the dMFI amounted to 977.

B2: anti-IL-12Rβ2 VHH clone 3CRHS51 (VHH, not shown: small tags and cut ends)
VHH: B1 VHH with A14P, S50A, S85R
notes: periplasmic extract
On to B2, for which the “% cells bound” value came to 46% and the dMFI amounted to 1240.

B3: anti-IL-12Rβ2 VHH clone 2CRH76 (VHH, not shown: small tags and cut ends)
VHH: QVQLQESGGGLVQTGGSLRLSCVASGRTFNWSAMGWFRQPPGKEREVVATISGGGTSAYYADSVKGRFTISRDGAKNTLYLQMNSLKPEDTAVYYCAADRVDYRMTLTQNGNHYWGQGTQVTVSS
notes: periplasmic extract
Take B3: the “% cells bound” value is 36.6% and the dMFI is 668.

B4: anti-IL-12Rβ2 VHH clone 3CAHS41 (VHH, not shown: small tags and cut ends)
VHH: QVQLQESGGGLVQAGDSLRLSCAASGRTFDTYIVGWFRQAPGKEREFVSALSWSDDTTIRDDSLRGRFTISRDNAKNTVYLLMNSLKPEDTAVYYCAAKAKPPAATWSSYRNREWYDYWGQGTQVTVSS
notes: periplasmic extract
On to B4, for which the “% cells bound” value is 43.3% and the dMFI came to 1070.

B5: anti-IL-12Rβ2 VHH clone 3CAHS180 (VHH, not shown: small tags and cut ends)
VHH: B4 VHH with I70L
notes: periplasmic extract
In the case of B5, the “% cells bound” value came to 42.6% and the dMFI is 1010.

B6: anti-IL-12Rβ2 VHH clone 2CRH62 (VHH, not shown: small tags and cut ends)
VHH: QVQLQESGGGLVQPGGSLRLSCVESGRTFTVYDMGWFRQAPGKEREIVAAISADGATSIYQDSVKGRFTISRDNDAKNTVYLQMNSLKPEDTAVYYCAAGRSLIYNLYRANNTDYWGQGTQVTVSS
notes: periplasmic extract
B6: the “% cells bound” value was 41.9% and the dMFI came to 891.

B7: anti-IL-12Rβ2 VHH clone 3CRH25 (VHH, not shown: small tags and cut ends)
VHH: QVQLQESGGGLVQAGDSLRLSCTASGHTFSRYTTIGWFRQAPGKDREFVAAIRWSGDITDYADAVKGRFTISRDNVKNTVYLQMNSLNPEDTAVYYCARGYSEYGVLSRNRGLYAYWGQGTQVTVSS
notes: periplasmic extract
Take B7: the “% cells bound” value stood at 34.8% and the dMFI is 620.

B8: anti-IL-12Rβ2 VHH clone 3CRH64 (VHH, not shown: small tags and cut ends)
VHH: B7 VHH with D16G, M84T
notes: periplasmic extract
For the molecule B8, the “% cells bound” value was 31% and the dMFI came to 645.

B9: anti-IL-12Rβ2 VHH clone 3CRHS77 (VHH, not shown: small tags and cut ends)
VHH: B7 VHH with D16G, R31S, D45E, R53G, D74H, K77E
notes: periplasmic extract
Take B9: the “% cells bound” value turned out to be 37.7% and the dMFI is 867.

B10: anti-IL-12Rβ2 VHH clone 3CAH32 (VHH, not shown: small tags and cut ends)
VHH: QVQLQESGGGLVQPGGSLRLSCAASGSILRINLMGWYRQVPGKQRELVAEMSTGGSTTYVDSVKGRFTISRDNAKNTVYLQMNSLKPEDTAVYYCNAKAWQLGRLENDDWGQGTQVTVSS
notes: periplasmic extract; also called 20357
On to B10, for which the “% cells bound” value worked out at 40% and the dMFI is 742.

B11: anti-IL-12Rβ2 VHH clone 3CAHS102 (VHH, not shown: small tags and cut ends)
VHH: B10 VHH with K64E
notes: periplasmic extract
In the case of B11, the “% cells bound” value came to 44.7% and the dMFI was 1090.

B12: anti-IL-12Rβ2 VHH clone 3CAH60 (VHH, not shown: small tags and cut ends)
VHH: QVQLQESGGGLVQPGGSLILSCVASGFAMDYLTMGWSREAPRNEREDISCIDTSGRSTDYLDSVKGRFTISRDNAKNTLYLHMNDLKPEDTAEYYCLASTSYCGAGYEYRGQGTQVTVSS
notes: periplasmic extract; also called 20361
With B12, the “% cells bound” value is 0.1% and the dMFI was determined as 18.

B13: anti-IL-12Rβ2 VHH clone 3CAHS79 (VHH, not shown: small tags and cut ends)
VHH: QVQLQESGGGLVQPGGSLRLTCVASGFPFSTHAMSWVRQPPGKGREWISAINSGGDSTDYADSVMGRFTISRDNAKNTVYLQMNSLKSEDTAVYYCAKYEDCSDYDCSSRASWGQGTQVTVSS
notes: periplasmic extract
Consider B13, for which the “% cells bound” value is 46.1% and the dMFI was 1230.

B14: anti-IL-12Rβ2 VHH clone 3CAHS171 (VHH, not shown: small tags and cut ends)
VHH: B13 VHH with V93A
notes: periplasmic extract
B14: the “% cells bound” value is 47.5% and the dMFI amounted to 1280.

B15: anti-IL-12Rβ2 VHH clone 3CRH59 (VHH, not shown: small tags and cut ends)
VHH: QVQLQESGGGLVQPGGSLRLSCTASGFAFSSYWMYWVRQTPGKGFEWVSVVNPGGEITYYGDSMEDRFTISRDNAKNTLYLQMNSLKPEDTGLYYCARDRTTIDYTRTYYRGGQGTQVTVSS
notes: periplasmic extract
For the molecule B15, the “% cells bound” value came out at 46.1% and the dMFI is 1170.

B16: anti-IL-12Rβ2 VHH clone 3CRH83 (VHH, not shown: small tags and cut ends)
VHH: QVQLQESGGGLVQAGGSLKLSCAASGNTFSINAMAWYRQAPGQELELVAAISDVGNTIYADSMKGRFTISRGNADNTVYLQMNSLKPEDTATYYCNAGTFYTSPGDSYYRGYDFWGQGTQVTVSS
notes: periplasmic extract
For B16, the “% cells bound” value was found to be 28.3% and the dMFI turned out to be 602.

B17: anti-IL-12Rβ2 VHH clone 2CRH41 (VHH, not shown: small tags and cut ends)
VHH: QVQLQESGGGLVQPGGSLRLSCTASGFAFSSYWMYWVRQSPEKGFEWVSVVDTDGGITYYADSVKGRFTISRDNAKNTLYLQMNSLKPQDTALYYCARDRTTLEYTRTYYRTGQGTQVTVSS
notes: periplasmic extract; also called 20365
With B17, the “% cells bound” value was found to be 31.6% and the dMFI was 583.

B18: anti-IL-12Rβ2 VHH clone 3CRHS163 (VHH, not shown: small tags and cut ends)
VHH: B17 VHH with S31T, V37I, D52N, D54G, G56D, Q89E, L103M, E104S, T112G
notes: periplasmic extract
On to B18, for which the “% cells bound” value was found to be 43.7% and the dMFI turned out to be 1150.

B19: anti-IL-12Rβ2 VHH clone 2CRH82 (VHH, not shown: small tags and cut ends)
VHH: QVQLQESGGGLVQAGGSLRLSCAASARTESMYAMAWFRQAPGKEREIVAGIIQSGGTTYISDYMKGRFSIDRGNAENTVYLQMDSLKPEDTAVYSCAAKVSSGTPSDIQISQSRWYDHWGQGTQVTVSS
notes: periplasmic extract
Take B19: the “% cells bound” value amounted to 40.1% and the dMFI came to 844.

B20: anti-IL-12Rβ2 VHH clone 3CRHS99 (VHH, not shown: small tags and cut ends)
VHH: QVQLQESGGGLVQPGGSLRLSCKASGFTFSTYAMSWVRQAPGKGLEWVSAINSGGLSTDYADSVEGRFTISRDDAKNMLFLQMNSLKAEDTARYYCAKYEDCSDYMCHRDRAGYWGQGTQVTVSS
notes: periplasmic extract
For B20, the “% cells bound” value amounted to 42.1% and the dMFI amounted to 980.

B21: anti-IL-12Rβ2 VHH clone 3CRHS106 (VHH, not shown: small tags and cut ends)
VHH: B20 VHH with I51V, A88P
notes: periplasmic extract
In the case of B21, the “% cells bound” value was 43.3% and the dMFI worked out at 1110.

B22: anti-IL-12Rβ2 VHH clone 3CRHS142 (VHH, not shown: small tags and cut ends)
VHH: QVQLQESGGGLVQAGGSLRLSCVSSQTLVGIEAMGWYRQAPGKQRELVALITLNGGTFYADSVKGRFTISRDVAEHMLYLEMNSLNPEDTAVYFCVAGVESDNEEPTYWGQGTQVTVSS
notes: periplasmic extract
With B22, the “% cells bound” value came to 1.02% and the dMFI was determined as 210.

B23: anti-IL-12Rβ2 VHH clone 3CRHS67 (VHH, not shown: small tags and cut ends)
VHH: B22 VHH with R19T
notes: periplasmic extract
On to B23, for which the “% cells bound” value was 7.11% and the dMFI turned out to be 443.

B24: anti-IL-12Rβ2 VHH clone 3CRHS166 (VHH, not shown: small tags and cut ends)
VHH: B22 VHH with A14S
notes: periplasmic extract
As for B24, the “% cells bound” value is 2.11% and the dMFI worked out at 266.

B25: anti-IL-12Rβ2 VHH clone 2CRHS4 (VHH, not shown: small tags and cut ends)
VHH: B22 VHH with A14P, E75G
notes: periplasmic extract
Consider B25, for which the “% cells bound” value is 3.55% and the dMFI came to 254.

B26: anti-IL-12Rβ2 VHH clone 3CRHS156 (VHH, not shown: small tags and cut ends)
VHH: B22 VHH with A14S, T68A
notes: periplasmic extract
In the case of B26, the “% cells bound” value worked out at 1.51% and the dMFI turned out to be 222.

B27: anti-IL-12Rβ2 VHH clone 3CAH28 (VHH, not shown: small tags and cut ends)
VHH: QVQLQESGGGLVQSGASLRLSCAASERTLSGYAMGWFRQAPGKEREFVAAIRWSGSSTYYAESVEGRFTISRDNAKNTVYLQMNILKPEDTAVYYCAAGSDYADEYDYWGQGTQVTVSS
notes: periplasmic extract; also called 20356
On to B27, for which the “% cells bound” value is 0.15% and the dMFI came to 37.

B28: anti-IL-12Rβ2 VHH clone 3CRH28 (VHH, not shown: small tags and cut ends)
VHH: QVQLQESGGGLVQPGGSLTLSCAASGFTFSSNAMSWVRQAPGKGLEWVSSISSGGGTTYYTDSVKGRFTTARDNAKNTLYLRMNSLKPEDTAVYYCSKSSTGSGSRGQGTQVTVSS
notes: periplasmic extract
Turning to B28, the “% cells bound” value is 44.6% and the dMFI came out at 1110.

B29: anti-IL-12Rβ2 VHH clone 3CRH73 (VHH, not shown: small tags and cut ends)
VHH: QVQLQESGGGLVRAGGSLRLSCAASGHTFSNYVMGWFRQAPGKEREFVAAISWGGSNTYYADSVKGRFTISRDNAKNTVYLQMNSLKVEDTAVYYCAADRRFEGWNYYSMDYWGKGTQVTVSS
notes: periplasmic extract
For B29, the “% cells bound” value is 41.2% and the dMFI amounted to 918.
